In data set [1] the target is VP64-C7-ER (Zif268 variant C7 + mER LBD G525R) (synthetic) (UniProt P08046). Nature of the data set: cell_activity. Conditions: HeLa luciferase, 4-OHT-induced.
Data set [2] addresses VP64-C7-PR (Zif268 variant C7 + hPR LBD aa645-914) (synthetic) (UniProt P08046). In words: cell_activity. Conditions: HeLa luciferase, RU486-induced.
A further data set addresses VP16-C7-ER (synthetic) (UniProt P08046). Nature of the data set: cell_activity. Conditions: 4-OHT-induced, HeLa; no response to RU486.
The target in the next data set is VP16-C7-PR (synthetic) (UniProt P08046). Nature of the data set: cell_activity. Conditions: RU486-induced, HeLa; no response to 4-OHT.
The subject of data set [3] is B3 three-finger zinc finger protein (Sp1C framework, designed) (synthetic). In words: EMSA. Particulars: Zn buffer (90 uM ZnCl2, 90 mM KCl, 1 mM MgCl2), 3 h room temperature. A general note: In EMSA bound probe runs differently from free probe, usually more slowly.
Data set [4] deals with E2C-RE-VP64 (hRXRa + Drosophila EcR LBDs) (synthetic). Nature of the data set: cell_activity. Particulars: Ponasterone A-induced; significant basal activity.

As for “GAGGGTACCGCGTGGGCGAAAAAGCGTGGGCGAGTCGACTCTAGAGGGTATATAATGG (double strand) [C7 direct repeat, 3 bp spacer, TATA reporter]”, the figures for the activity in data set [1] and in data set [2] were 9.5 fold and 3.9 fold, respectively. Regarding “GCGTGGGCG (double strand) [10xC7-TATA-luc]”, the results for the activity with VP16-C7-ER (synthetic) and with VP16-C7-PR (synthetic) were 43 fold and 26 fold, respectively.

The sequence “GGAGGGGAC [B3 target site oligonucleotide]” gave a Kd in data set [3] of 0.015 µM. In other words, the double-digit nanomolar range. For “GGGGCCGGAGCCGCAGTG (double strand) [E2C-TATA-luc single E2C site]”, the activity in data set [4] turned out to be 3 fold.

One may read the Kd as a measure of binding affinity in units of concentration. Low readings indicate a tighter complex, high ones a looser complex.

The values above are taken from patent US7741110.
